Laboratory results taken from the DeepSol protein solubility set.

test: soluble on expression in E. coli; label from the status in PepcDB or PDB records

Row | Sequence | soluble on expression in E. coli
1 | MKNVGDVGDLCTGCGTCAAMCPLESVVMRIDHDRGVYEPLVDGECDGCGVCLRVCPGVGVDFTDLNMRVFGREPDDMLMGNYEECYIAHSRDDELRYGASSGGMISQILIYLLEEGLIDGALVTRMNPERPLEPEPFIARTPSEIIESRGSKYCPVPANVALKEILEVPGRYAVVGLPCHIHGVRKAEVISRKLRERIVYHLGIVCNHAPSFRATEFLLERLGVDPGDVKSIRYRGEGWPGSLRVETESGDLLLLPEYWGSGFGQLFMPERCRLCADHMAELSDISFADPWLKELKDEKKGRTLVIIRKWPEKFAGILKGGICEMDKIKPEKALLSQIYNIYMKKKLCRRSMYNGSFPEIDFIDRIILSFEPSRLKIPWTIKRRYIFFYSMIVALKARMDFLGDSKLEHHHHHH | soluble
2 | MPGGRRRGFDDQVALQTAMELFWRQGYEGTSITDLTKALGINPPSLYAAFGSKRDLFEKTLDRYMCERTLQLEEAMVRPTAHEAVLDFLTGRVEVFTAPGQPFGCMTVQAGLASGEPHHEIVDLLTAAREQMRQTVLDRFEKALADGDLPAGTDCTALARYVMAAVYGLSVEAASGAPREELTAAAILAAQVVPRAQM | soluble
3 | MSLEEYNLIKPSHCKCQIVELEDIYRRDLNLLVALRVLIEESSVSKAATRLNLSQSAMSRVLGRLRDLLGDPLFTRQGQHLIPTQKALEIDRSLGEPLESLRQLLSPVEFDPQQCDQTFTIATTDYAMQTILPFALPRIYQEAPNVSFNFLPLQHDRLSDQLTYEGADLAICRPTGPVEPLRSEILGRVGVLCLLSKQHPLANQEMSLDDYLSHPHAMIAISDGVKALIEQALIDKPQRKMVLRAYHLEAALAIVDTLPIIITVPADLAYLVAERYDLVVKPLPFQFTPFDYSMIWHARCEHSPAQEWLRSVVREECSRLIAKRIEDMGLNEGHHHHHH | soluble
4 | MSIPFTRWPEEFARRYREKGYWQDLPLTDILTRHAASDSIAVIDGERQLSYRELNQAADNLACSLRRQGIKPGETALVQLGNVAELYITFFALLKLGVAPVLALFSHQRSELNAYASQIEPALLIADRQHALFSGDDFLNTFVTEHSSIRVVQLLNDSGEHNLQDAINHPAEDFTATPSPADEVAYFQLSGGTTGTPKLIPRTHNDYYYSVRRSVEICQFTQQTRYLCAIPAAHNYAMSSPGSLGVFLAGGTVVLAADPSATLCFPLIEKHQVNVTALVPPAVSLWLQALIEGESRAQLASLKLLQVGGARLSATLAARIPAEIGCQLQQVFGMAEGLVNYTRLDDSAEKIIHTQGYPMCPDDEVWVADAEGNPLPQGEVGRLMTRGPYTFRGYYKSPQHNASAFDANGFYCSGDLISIDPEGYITVQGREKDQINRGGEKIAAEEIENLLLRHPAVIYAALVSMEDELMGEKSCAYLVVKEPLRAVQVRRFLREQGIAEFKLPDRVECVDSLPLTAVGKVDKKQLRQWLASRASA | soluble
5 | MQRNVMSEIVYGDKQLQILIAAEKLIAEQGFQGLSMHKVAKAANMATGTIYRYFRDKDHLLIEVRLHVSQKIAEAVQANLRDDMSLQERFRTMWLNIWTLAGSCRDIISNRVQYESLPTTTCCNVRELEQKMFAKVELLFDQGKQQGIFKPLDNHLLSALSFETTVTLARQYALGFYQLDDSTLDAMIQASWDAITQH | not soluble
6 | GPGSMANDYLFTSESVSEGHPDKVADQISDAILDAILAQDKYSRVAAETLCNTGLVVLAGEITTTANIDYIQIARDTIKRIGYDNTDYGIDYRGCAVLVAYDKQSPDIAQGVDRAHDNNLDQGAGDQGLMFGYACDETPELMPLPIHLSHRLVERQANLRRDGRLPWLRPDAKSQVTVRYVDGKPHSIDTVVLSTQHAPEIDLPALREAVIEEVIKPTLPADLIKGDIKFLVNPTGRFVIGGPQGDCGLTGRKIIVDTYGGAAPHGGGAFSGKDPSKVDRSAAYAGRYVAKNIVAAGLASRALIQVSYAIGVAEPTSVMVNTFGTGRVSDETITKLVREHFDLRPKGIIQMLDLLRPIYEKTAAYGHFGREEPEFSWEAADKALALAEAAGVEPAVQVA | soluble
7 | MGSDKIHHHHHHMDDTTPPETPAVDDLLQRIAGAYDTLPRQLKRIASYIDEHRSSVMMDRTSDIAQRCGVHPSAVVRFAQRFGFSGFSDLQAVFKDAYTGQNPTVQSYQQRIRSLIDGEAGPMTGGAVARQFIDASRAGLDELAAGLDDDQFDAAVTMLERAENIYVVGVRRSFPVASYIVYALQHTAKRVHLVSGLGGMYREQIRSVKKGDVVIAISFAPYGKETQYCLRAARHNHAQTLVVTDSRLSPLARDASAHLLVKEGSAFAFRSLTSTICLCQALFIALAYRLELNVEEVKDIGGYDD | not soluble
8 | MSLDKQNHKIFEILADKVSAKDNVITASGNAILLNYDVYILADKVRYDTKTKEALLEGNIKVYRGEGLLVKTDYVKLSLNEKYEIIFPFYVQDSVSGIWVSADIASGKDQKYKVKNMSTSGCSIDNPIWHVNATSGSFNMQKSHLSMWNPKIYVGDIPVLYLPYIFMSTSNKRTTGFLYPEFGTSNLDGFIYLQPFYLAPKNSWDMTFTPQIRYKRGFGLNFEARYINSKNDRFLFNARYFRNYTQYVKRYDLRNQNIYGFEFLSSSRDTLQKYFHLKSNIDNGHYIDFLYMNDLDYVRFEKVNKRITDATHMSRANYYLQTENNYYGLNIKYFLNLNKINNNRTFQSVPNLQYHKYLNSLYFRNLLYSVDYQFRNTAREIGYGYVQNALNVPVGLQFSLFKKYLSLGLWNDLQLSNVALMQSKNSFVPTIPNESREFGNFVSSNFSMYVNTDLAREYNKLFHTIQLEAIFNIPYYTFKNGLFSQNMYALSAQALNSYTSPLLRDYDYQGRLYDSVWNPSSILPSNASNKTVDLTLTQYLYGLGGQELLYFKISQLINLDDKVSPFRMPLESKIGFSPLTGLNIFGNVFYSFYQNRLEEISVNANYQRKFLSFNLSYFLKNNFSSGINSIVENEGHHHHHH | not soluble
9 | MSNLLGPRDANGIPVPMTVDESIASMKASLLKKIKRSAYVYRVDCGGCNGCEIEIFATLSPLFDAERFGIKVVPSPRHADILLFTGAVTRAMRSPALRAWQSAPDPKICISYGACGNSGGIFHDLYCVWGGTDKIVPVDVYIPGCPPTPAATLYGFAMALGLLEQKIHARGPGELDEQPAEILHGDMVQPLRVKVDREARRLAGYRYGRQIADDYLTQLGQGEEQVARWLEAENDPRLNEIVSHLNHVVEEARIRLEHHHHHH | not soluble
10 | GEGITLNQVAVGCECQDCLWAPTGGCCPGASLHKFAYNDQGQVRLRAGLPIYECNSRCRCGYDCPNRVVQKGIRYDLCIFRTDDGRGWGVRTLEKIRKNSFVMEYVGEIITSEEAERRGQIYDRQGATYLFDLDYVEDVYTVDAAYYGNISHFVNHSCDPNLQVYNVFIDNLDERLPRIAFFATRTIRAGEELTFDYNMQVDPVDMESTRMDSNFGLAGLPGSPKKRVRIECKCGTESCRKYLF | not soluble
11 | VSAADTAEDLPEQFRIRRDKRARLLAQGRDPYPVAVPRTHTLAEVRAAHPDLPIDTATEDIVGVAGRVIFARNSGKLCFATLQDGDGTQLQVMISLDKVGQAALDAWKADVDLGDIVYVHGAVISSRRGELSVLADCWRIAAKSLRPLPVAHKEMSEESRVRQRYVDLIVRPEARAVARLRIAVVRAIRTALQRRGFLEVETPVLQTLAGGAAARPFATHSNALDIDLYLRIAPELFLKRCIVGGFDKVFELNRVFRNEGADSTHSPEFSMLETYQTYGTYDDSAVVTRELIQEVADEAIGTRQLPLPDGSVYDIDGEWATIQMYPSLSVALGEEITPQTTVDRLRGIADSLGLEKDPAIHDNRGFGHGKLIEELWERTVGKSLSAPTFVKDFPVQTTPLTRQHRSIPGVTEKWDLYLRGIELATGYSELSDPVVQRERFADQARAAAAGDDEAMVLDEDFLAALEYGMPPCTGTGMGIDRLLMSLTGLSIRETVLFPIVRPHSN | not soluble
12 | MGKRKSKRKAPTKAKAVMPLDTQFNCPFCNHERVCEVKMDREKNVGYISCRVCSEDFQTNINYLSEPIDVYSDWVDACEQANNA | not soluble
13 | MSLRVTLREVAQEAGVSLKTASNVINHSGRMADATREKVQDVIDRLGYRVNVSARNLNRGKTGFITLAVPSLTAPYLAELANRVIDAARIYGYSVYITTYAEGSAQGARALLRNFNATVSDGMILSISEVEDLDPEDLDVDYPLVCVGARSTHGKADHVTPDDVQEARLAAQYLFDHGATNLAVIGSRTDPEHILELRDAVEGNAQLRMRGIFEACADQGVELDTRLVPNVGQDWTIGSGARMTQRIVDSGIPFDGIVAFNDQLALGALFTLAANGIAVPDRVQVIGFDNNEEAAYFQPPLTTMDSCLDWIAPTAVSRIINRIDGSRTLEPELITTQSRIIARATTRAEGHHHHHH | soluble
14 | TELTKCKVSHAIKDIDGYQGISLLEWACVLFHTSGYDTQAVVNDNGSTEYGLFQISDRFWCKSSEFPESENICGISCDKLLDDELDDDIACAKKILAIKGIDYWKAYKPMCSEKLEQWRCEKP | soluble
15 | MSLDYDLLIKNGQTVNGMPVEIAIKEKKIAAVAATISGSAKETIHLEPGTYVSAGWIDDHVHCFEKMALYYDYPDEIGVKKGVTTVIDAGTTGAENIHEFYDLAQQAKTNVFGLVNISKWGIVAQDELADLSKVQASLVKKAIQELPDFVVGIKARMSRTVIGDNGITPLELAKQIQQENQEIPLMVHIGSAPPHLDEILALMEKGDVLTHCFNGKENGILDQATDKIKDFAWQAYNKGVVFDIGHGTDSFNFHVAETALREGMKAASISTDIYIRNRENGPVYDLATTMEKLRVVGYDWPEIIEKVTKAPAENFHLTQKGTLEIGKDADLTIFTIQAEEKTLTDSNGLTRVAKEQIRPIKTIIGGQIYDNEGHHHHHH | soluble
16 | MRQRIAVVGGGPAGLAFARVMHRHDRSVTVLERDPAPDARPPGGTLDLHEGLGRLAMDKAGLSAEFEALSRPEGQAMRILDTDGTVLRDWRPDPAERANPEIDRGQLRDLLLGPLDVRWGQGVTKVVPGGRDGVLVHFEDGRQEAFDLVVGADGAWSRTRPAVSPVTPHYTGVTSVETSLDDVDTRHPDLARLVGDGSVAVYGVNRAVVAQRNSGGHVKVHAQFRAPLDWHAHLDLGDAEAVRSRLLTLFDGWTAPVLDLLRHGTGFVHRPLHVLPVSHTWTHVPGVTLLGDAAHLMPPLGAGANLALLEGAELAESLADGSADPDDAVRAFEERMWARAGRWAKITAAGLERLVSPDPAAALAVFDQVQPSRLEHHHHHH | not soluble
17 | SLVTVSDVKQYHFCKAIPWINYVMGYREPSTFSMEEGKKISYEEVVKSLNLTTPVKYEVCLSYNGLSGCIDILAGDRKYTVVEVKAFKRGNFSHFRYQLLAYAYLVRKRLGIVERAILVMEGKKVLEIEPTEEHYRYIENVVKKIEEIVNSEKLPAVNVEKCDFCQYRRICPVSVWS | not soluble
18 | MQTYIETSRLILRDWKEEDIPAFARMNADPHVMEFFLHPLTPEESLAFYHRIQNEFQTCGFGLYAVERKEDHAFMGYTGLHQITFDVDFAPGIEIGWRLAHEYWGRGYAPEAATACLEYARKSLDIKELFSFTSLPNQRSERVMQKIGMERVREFGHPLVPAEHPLHRHVLYYIDLRKHSS | not soluble
19 | MQNLSSTQREILLALVDLYNRYKRMIKSKEVADVIGKDEGTVRNIILSLKVLGLIESKPGPNGGYVPTLKAYESIKNPIITPVFDQISLYKDGLETDIKISNIELLDITNPSGNKVLLRVNGDLRKLKVGDSIKIGPIPYTRLVIEGVVIHIDDTRKELIADVTRMISIPKVQIKSLISKKLVALKPDMTLKEASQIFYKEGIRGAPVLDNEGKTLGILTTADIIKAFFEGKYDAKVSEYMKSNVISIRDEDDILTAIKKMLIYNVGRLLVYNQDQKVIGIVTRTDILKTIAGLEELITP | soluble
